T1: human GFRα3 expressed with a C-terminal mFc tag (human)
T1 construct: also called hGFRα3-mFc
T1 chain: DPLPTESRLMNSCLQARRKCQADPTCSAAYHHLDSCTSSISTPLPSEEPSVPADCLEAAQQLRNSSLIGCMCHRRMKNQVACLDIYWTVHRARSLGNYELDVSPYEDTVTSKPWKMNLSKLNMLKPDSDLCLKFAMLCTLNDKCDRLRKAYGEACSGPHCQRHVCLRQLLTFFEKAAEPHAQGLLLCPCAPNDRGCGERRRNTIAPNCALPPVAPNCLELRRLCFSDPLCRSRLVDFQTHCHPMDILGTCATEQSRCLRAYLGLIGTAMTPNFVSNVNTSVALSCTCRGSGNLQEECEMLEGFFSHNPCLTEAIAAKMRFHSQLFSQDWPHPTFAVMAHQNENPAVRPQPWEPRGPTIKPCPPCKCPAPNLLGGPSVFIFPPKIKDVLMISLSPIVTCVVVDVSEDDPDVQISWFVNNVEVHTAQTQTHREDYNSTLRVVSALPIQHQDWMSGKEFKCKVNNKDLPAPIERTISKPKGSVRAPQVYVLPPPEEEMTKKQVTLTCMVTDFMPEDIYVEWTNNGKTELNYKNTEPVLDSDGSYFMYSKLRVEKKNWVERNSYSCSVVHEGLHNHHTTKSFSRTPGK


What was measured:
[1] = molecular target: T2, human GFRα3 expressed with a C-terminal myc-myc-hexahistidine tag (human, UniProt O60609 32-374, biotinylated (sites not given) in ELISA format 2 and in the Octet cross-competition; not in SPR); experiment: SPR, Ab captured, 37C
T2 construct: also called hGFRα3-mmh; hGFRα3-mmH
Method: (§1) Antibodies were tested for binding to human GFRα3 expressed with either a C-terminal myc-myc-hexahistidine tag (hGFRα3-mmh; SEQ ID: 370, a C-terminal hFc tag (hGFRα3-hFc; SEQ ID:371), or a C-terminal mFc tag (hGFRα3-mFc; SEQ ID:372), as well as monkey GFRα3 expressed with a C-terminal myc-myc-hexahistidine tag (MfGFRα3-mmh; SEQ ID:373). Anti-GFRα3 antibodies were captured on either a goat anti-mouse IgG polyclonal antibody (GE Healthcare, #BR-1008-38) or a mouse anti-human IgG monoclonal antibody (GE Healthcare, #BR-1008-39) surface created through direct amine coupling to a Biacore CM5 sensor chip. Kinetic experiments were carried out using HBS-EP (10 mM HEPES, 150 mM NaCl, 3 mM EDTA, 0.05% Surfactant P20, at pH 7.4) or PBS buffer containing 0.05% v/v surfactant P20 as both the running buffer and the sample buffer. Binding to human GFRα3-mmh or monkey GFRα3-mmh was evaluated by injecting several concentrations ranging from 200 to 7.4 nM (3-fold dilutions) across the captured antibody surface. Binding to human GFRα3-mFc or human GFRα3-hFc was evaluated by injecting several concentrations ranging from 100 to 3.7 nM (3-fold dilutions) across the captured antibody surface. Antibody-antigen association was monitored for up to 4 minutes, while dissociation in buffer was monitored for up to 20 minutes. Kinetic association (kₐ) and dissociation (kd) rate constants were determined by processing and fitting the data to a 1:1 binding model using Scrubber 2.0c curve fitting software. Binding dissociation equilibrium constants (KD) and dissociative half-lives (t_{1/2}) were calculated from the kinetic rate constants as: KD (M)=kd/kₐ and t_{1/2} (min)=[ln 2/(60*kd)].

[2] = molecular target: T1, human GFRα3 expressed with a C-terminal …; experiment: SPR, Ab captured, 37C
Method: as §1

[3] = molecular target: T2, human GFRα3 expressed with a C-terminal …; experiment: Octet cross-competition; biotin-hGFRα3-mmH pre-saturated with first antibody H4H2292S
Method: (§2) A cross-competition assay was conducted to assess the ability of select antibodies to compete with one another for binding to human GFRα3 using an Octet RED384 biosensor (Fortebio Inc.). The entire experiment was performed at 25° C. with the flow rate of 1000 rpm in Octet HBST buffer (0.01 M HEPES pH7.4, 0.15M NaCl, 3 mM EDTA, 0.05% v/v Surfactant P20, 0.1 mg/mL BSA). To assess whether 2 antibodies were able to compete with one another for binding to their respective epitopes on biotinylated recombinant human GFRα3 expressed with a C-terminal myc-myc-hexahistidine tag (biotin-hGFRα3-mmH; SEQ ID:370), around ˜1.2 nm of biotin-hGFRα3-mmH was first captured onto streptavidin-coated Octet sensor tips (Fortebio Inc, #18-5019) by submerging the tips for 1 minute into a 10 μg/mL solution of biotin-hGFRα3-mmH. The antigen coated sensor tips were then placed into wells containing 25 μg/mL solution of a first anti-GFRα3 monoclonal antibody for 4 minutes to saturate the biotin-hGFRα3-mmH surface. The sensor tips were then subsequently dipped into wells containing 25 μ/mL solution of a second anti-GFRα3 monoclonal antibody. The sensor tips were washed in Octet HBST buffer in between every step of the experiment. The real-time binding response was monitored during the course of the experiment and the binding response at the end of every step was recorded as shown in FIG. 9. The response of mAb-2 binding to biotin-hGFRα3-mmH pre-complexed with the first antibody was compared and competitive/non-competitive behavior of different anti-GFRα3 monoclonal antibodies was determined.

[4] = molecular target: T2, human GFRα3 expressed with a C-terminal …; experiment: Octet cross-competition; biotin-hGFRα3-mmH pre-saturated with first antibody H4H2296S
Method: as §2

[5] = molecular target: T2, human GFRα3 expressed with a C-terminal …; experiment: Octet cross-competition; biotin-hGFRα3-mmH pre-saturated with first antibody H4H2352S
Method: as §2

[6] = molecular target: T2, human GFRα3 expressed with a C-terminal …; experiment: Octet cross-competition; biotin-hGFRα3-mmH pre-saturated with first antibody H4H2357S
Method: as §2

Binder	Kd [1]	koff [1]	kon [1]	t1/2 [1]	Kd [2]	koff [2]	kon [2]	t1/2 [2]	binding response of second antibody (nm) [3]	binding response of second antibody (nm) [4]	binding response of second antibody (nm) [5]	binding response of second antibody (nm) [6]
H4H2345S (antibody, human IgG4, V domains shown, human IgG4 Fc (H4H)) VH: EVQLVESGGGLVRPGRSLRLSCAASGFTFDNYAMHWVRQVPGKGLEWVSGITWNSVSLGYADSVKGRFTISRDNAQNSLYLQMNSLRTVDTALYYCAKDRWGGSYYFDFWGQGTLVTVSS VL: DIVMTQSPSSLSASVGDRVTITCRASQGISNYLAWYQQKPGKVPKLLIYSASTLQSGVPSRFSGSGSGTDFTLTISNLQPEDFATFFCQKYNSAPTFGGGTKVEIK	47300 pM	0.0087 s⁻¹	184000 M⁻¹ s⁻¹	1 min	106 pM	7.44e-05 s⁻¹	700000 M⁻¹ s⁻¹	155 min				
H4H2212N (antibody, human IgG4, V domains shown, human IgG4 Fc (H4H)) VH: EVQLLESGGGLVQPGGSLRLSCAASGFTFSSYAMSWVRQGPGKGLEWVSGISGSGGSTYNADSVKGRFTISRDNSKNTLYLQMNSLRAEDTAVYYCAKDSGTYWYYFDYWGQGILVTVSS VL: not shown									1.78 nm	1.76 nm	0.05 nm	1.9 nm
H4H2364S (antibody, human IgG4, V domains shown, human IgG4 Fc (H4H)) VH: EVQLVESGGGLEQPGGSLRLSCAASGFTFSSYVMSWVRQVPGKGLEWVSVISGSGGSTYYADSVKGRFTISRDNSKNTLYLQMNSLRAEDTAVYYCAKPSSYSSSNFHYGMDVWGQGTTVTVSS VL: DIQMTQSPYSVSASVGDRVTITCRASQGISSWLAWYQQKPGRAPKLLIYAASSLQSGVPSRFSGSGSGTDFTLTISSLQPEDFATYYCQKTNSFPFTFGPGTKVEIK	809 pM	0.000273 s⁻¹	338000 M⁻¹ s⁻¹	42 min	32.8 pM	4.14e-05 s⁻¹	1.26e+06 M⁻¹ s⁻¹	279 min				
H4H2341S (antibody, human IgG4, V domains shown, human IgG4 Fc (H4H)) VH: EVQLVESGAEVKKSGSSVKVSCKASGGTFSRYAISWVRQAPGQGLEWMGGIIPLFGTLNYAQKFQGRVTLTTDESTSTAYMELSSLRSEDTAVYYCAVFYYGSGSYRNWFDPWGQGTLVTVSS VL: not shown	2980 pM	0.000737 s⁻¹	248000 M⁻¹ s⁻¹	16 min	78.9 pM	7.58e-05 s⁻¹	961000 M⁻¹ s⁻¹	152 min				
H4H2236N3 (antibody, human IgG4, V domains shown, human IgG4 Fc (H4H)) VH: EVQLLESGGNLVQPGGSLRLSCAASGFTFSSYAMTWVRQAPGKGLEWVSTISGSGTSTYYADSVKGRFTISRDNSRDTVFLQMNSLRAEDTAVYYCSKPSALRFLHWLAMDVWGQGTLVTVSS VL: DIQMTQSPSSLSAFVGDRVTITCRASQDIRNYLDWFQQKPGKAPKSLIYAASNLQSGVPSRFGGSGSGTDFTLTINSLQPEDFVTYYCQQYNSYPPTFGGGTKVEIK	382 pM	0.000748 s⁻¹	1.96e+06 M⁻¹ s⁻¹	15 min					2.24 nm	0.07 nm	2.15 nm	0.04 nm
H4H2344S (antibody, human IgG4, V domains shown, human IgG4 Fc (H4H)) VH: EVQLVESGGGVVQPGRSLRLSCAASGFSFSDYVMHWVRQAPGKGLEWVASIWFDGSNEFYADSVKGRFTISRDNSKNTLFLQMNSLRAEDTAVYYCAKKGVLVATSAFDIWGQGTMVTVSS VL: DIQMTQSPSSLSASVGDRVTITCRASQSINNYLNWYHQKPGKAPKLLIYAASSLQSGVPSRFSGSGSGTDYTLTISSLQPEDFGNYYCQQSYRTSMYTFGQGTKVEIK	2580 pM	0.000724 s⁻¹	280000 M⁻¹ s⁻¹	16 min	89.1 pM	8.96e-05 s⁻¹	1.01e+06 M⁻¹ s⁻¹	129 min				
H4H2354S (antibody, human IgG4, V domains shown, human IgG4 Fc (H4H); also called H4H2354S-1) VH: QVQLVESGGGVVQPGRSLRLSCAASGFSFSDYVMHWVRQAPGKGLEWVASIWFDGSNEFYADSVKGRFTISRDNSKNTLFLQMNSLRAEDTAVYYCAKKGVLVATSAFDIWGQGTMVTVSS VL: DIQLTQSPSSLSASVGDRVTITCRASQSINNYLNWYHQKPGKAPKLLIYAASSLQSGVPSRFSGSGSGTDYTLTISSLQPEDFGNYYCQQSYRTSMYTFGQGTKVEIK	2310 pM	0.000649 s⁻¹	281000 M⁻¹ s⁻¹	18 min	89.5 pM	9.11e-05 s⁻¹	1.02e+06 M⁻¹ s⁻¹	127 min				
H4H2346S (antibody, human IgG4, V domains shown, human IgG4 Fc (H4H)) VH: QVQLVESGGGVVQPGRSLRLSCAASGFSFSDYVMHWVRQAPGKGLEWVASIWFDGSNEFYADSVKGRFTISRDNSKNTLFLQMNSLRAEDTAVYYCAKKGVLVATSAFDIWGQGTMVTVSS VL: EIVMTQSPSSLSASVGDRVTITCRASQSINNYLNWYHQKPGKAPKLLIYAASSLQSGVPSRFSGSGSGTDYTLTISSLQPEDFGNYYCQQSYRTSMYTFGQGTKVEIK	1410 pM	0.000589 s⁻¹	419000 M⁻¹ s⁻¹	20 min	78.1 pM	0.000137 s⁻¹	1.75e+06 M⁻¹ s⁻¹	84 min				
H4H2293P (antibody, human IgG4, V domains shown, human IgG4 Fc (H4H)) VH: QVQLVESGGGVVQPGRSLRLSCAASGFSFSDYVMHWVRQAPGKGLEWVASIWFDGSNELYADSVKGRFTISRDNSKNTLFLQMNSLRAEDTAVYYCAKKGVLVATSAFHIWGQGTMVTVSS VL: AIQMTQSPSSLSASVGDRVTITCRASQNINNYLNWYHQKPGKAPNLLIYAASSLQSGVPSRFSGSGSGTDYTLTISSLQPEDFGNYYCQQSYSTSMYTFGQGTKLEIK	313 pM	0.000244 s⁻¹	781000 M⁻¹ s⁻¹	47 min	29.9 pM	5.13e-05 s⁻¹	1.71e+06 M⁻¹ s⁻¹	225 min				
